This experiment has as its target His6-SUMO-WDR5 (recombinant human WD-repeat containing protein 5, residues Ser22-Cys334) (human, UniProt P61964 22-334). Put plainly: AlphaScreen or HTRF; competitive TR-FRET: 1 nM LanthaScreen Elite Tb-anti-His antibody, 150 nM 10-mer-Thr-FAM peptide, 2 nM His6-SUMO-WDR5 in 1X PBS pH 7.2, 300 mM NaCl, 0.5 mM TCEP, 0.1% CHAPS; 1 hour at room temperature; small-molecule inhibitors titrated to displace the peptide. The note with it: both partners purified. Background: Alpha assays give light when donor and acceptor beads are brought close together.

These results are taken from publication PMC13313556, “Development and characterization of triazole-based WDR5 inhibitors for the treatment of glioblastoma” (JCI Insight, 2026).

B1: 10-mer-Thr-FAM peptide probe (ARTEVHLRKS-[Ahx-Ahx][Lys-(5-FAM)]) (peptide)
peptide: ARTEVHLRKS
modifications: C-terminal Ahx-Ahx followed by Lys-(5-FAM)
notes: WIN-site peptide probe; After the ten printed residues come two aminohexanoic acid (Ahx) units and a lysine that carries 5-FAM; also called labeled WIN-site peptide; labeled WIN-peptide; source: synthetic peptide (GenScript)
For the molecule B1, the binding result was “binds”.
